We go through two molecules from patent US20140072613A1 (published 2014).

Holding throughout (experiment): cell-based or functional assay
In one assay the target is T1, DDR2(h) (human, UniProt Q16832 422-855, limits assumed).
T1 sequence (looked up): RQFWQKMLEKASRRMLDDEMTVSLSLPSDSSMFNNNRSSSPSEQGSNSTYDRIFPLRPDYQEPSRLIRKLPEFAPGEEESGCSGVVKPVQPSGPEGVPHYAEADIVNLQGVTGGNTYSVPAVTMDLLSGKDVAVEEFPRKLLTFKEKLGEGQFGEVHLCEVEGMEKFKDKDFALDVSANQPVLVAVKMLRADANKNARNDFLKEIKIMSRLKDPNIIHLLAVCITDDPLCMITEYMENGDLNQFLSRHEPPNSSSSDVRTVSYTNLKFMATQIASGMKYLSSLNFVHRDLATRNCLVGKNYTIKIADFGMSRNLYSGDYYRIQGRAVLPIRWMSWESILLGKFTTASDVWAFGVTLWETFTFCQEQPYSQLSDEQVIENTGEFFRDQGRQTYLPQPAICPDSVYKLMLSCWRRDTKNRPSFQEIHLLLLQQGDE

The target of a further assay is T2, MST2(h) (human, UniProt Q13188 1-491).
T2 sequence (looked up): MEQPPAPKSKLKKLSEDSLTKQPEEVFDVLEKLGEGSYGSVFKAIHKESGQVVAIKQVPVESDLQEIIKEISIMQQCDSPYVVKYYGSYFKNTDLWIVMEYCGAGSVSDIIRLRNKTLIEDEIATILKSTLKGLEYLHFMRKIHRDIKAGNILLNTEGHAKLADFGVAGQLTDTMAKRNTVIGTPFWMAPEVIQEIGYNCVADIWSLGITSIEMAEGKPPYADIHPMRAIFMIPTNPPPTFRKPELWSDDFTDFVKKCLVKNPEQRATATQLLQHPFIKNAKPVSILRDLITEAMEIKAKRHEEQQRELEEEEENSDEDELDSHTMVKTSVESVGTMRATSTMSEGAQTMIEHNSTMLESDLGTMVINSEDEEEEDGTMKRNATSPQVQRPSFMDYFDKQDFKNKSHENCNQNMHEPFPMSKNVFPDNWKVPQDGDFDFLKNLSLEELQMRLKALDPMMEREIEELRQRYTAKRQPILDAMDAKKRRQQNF

In the next assay the target is T3, LKB1(h) (human, UniProt Q15831 1-433).
T3 sequence (looked up): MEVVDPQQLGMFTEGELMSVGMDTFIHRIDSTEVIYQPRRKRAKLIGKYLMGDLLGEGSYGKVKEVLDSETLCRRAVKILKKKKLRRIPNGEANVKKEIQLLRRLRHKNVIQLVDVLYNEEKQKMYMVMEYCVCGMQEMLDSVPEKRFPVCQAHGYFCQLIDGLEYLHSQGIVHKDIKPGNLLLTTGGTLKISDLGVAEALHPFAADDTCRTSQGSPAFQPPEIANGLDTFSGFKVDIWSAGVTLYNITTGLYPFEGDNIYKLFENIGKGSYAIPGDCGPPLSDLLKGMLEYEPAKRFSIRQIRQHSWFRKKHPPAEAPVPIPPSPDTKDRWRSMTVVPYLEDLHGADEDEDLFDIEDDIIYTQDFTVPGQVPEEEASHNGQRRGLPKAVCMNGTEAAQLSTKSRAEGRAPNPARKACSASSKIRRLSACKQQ

For a further assay, the target named is T4, PrKX(h) (human, UniProt P51817 1-358).
T4 sequence (looked up): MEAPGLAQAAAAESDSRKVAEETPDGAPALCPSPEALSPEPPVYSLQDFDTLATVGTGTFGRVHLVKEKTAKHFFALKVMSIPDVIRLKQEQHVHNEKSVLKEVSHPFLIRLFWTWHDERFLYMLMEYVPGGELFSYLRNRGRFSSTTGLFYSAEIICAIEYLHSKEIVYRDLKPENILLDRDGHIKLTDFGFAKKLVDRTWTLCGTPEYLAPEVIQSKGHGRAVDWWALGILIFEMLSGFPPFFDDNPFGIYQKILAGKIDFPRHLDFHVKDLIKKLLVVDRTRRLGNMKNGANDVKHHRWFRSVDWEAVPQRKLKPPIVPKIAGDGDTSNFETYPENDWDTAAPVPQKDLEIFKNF

The target in a further assay is PDGFRβ(h) (human, UniProt P09619 557-1106, limits assumed).
Chain of PDGFRβ(h) (P09619 557-1106 limits assumed): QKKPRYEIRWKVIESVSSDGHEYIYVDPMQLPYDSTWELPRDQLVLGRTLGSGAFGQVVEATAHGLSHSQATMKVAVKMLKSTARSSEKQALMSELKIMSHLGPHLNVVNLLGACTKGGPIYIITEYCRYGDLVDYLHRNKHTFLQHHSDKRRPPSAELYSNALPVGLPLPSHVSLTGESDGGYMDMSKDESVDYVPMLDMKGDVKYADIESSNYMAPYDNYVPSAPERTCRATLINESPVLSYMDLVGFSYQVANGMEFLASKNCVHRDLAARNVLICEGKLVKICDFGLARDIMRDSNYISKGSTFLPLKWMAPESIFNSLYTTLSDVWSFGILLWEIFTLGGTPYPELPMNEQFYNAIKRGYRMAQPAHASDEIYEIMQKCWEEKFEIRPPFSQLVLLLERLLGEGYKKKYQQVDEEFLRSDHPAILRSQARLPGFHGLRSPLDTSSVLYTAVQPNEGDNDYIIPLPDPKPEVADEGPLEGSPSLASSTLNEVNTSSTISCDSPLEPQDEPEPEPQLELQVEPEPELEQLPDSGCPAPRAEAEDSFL
The target in the next assay is T5, EphB2(h) (human, UniProt P29323 565-986, limits assumed).
T5 sequence (looked up): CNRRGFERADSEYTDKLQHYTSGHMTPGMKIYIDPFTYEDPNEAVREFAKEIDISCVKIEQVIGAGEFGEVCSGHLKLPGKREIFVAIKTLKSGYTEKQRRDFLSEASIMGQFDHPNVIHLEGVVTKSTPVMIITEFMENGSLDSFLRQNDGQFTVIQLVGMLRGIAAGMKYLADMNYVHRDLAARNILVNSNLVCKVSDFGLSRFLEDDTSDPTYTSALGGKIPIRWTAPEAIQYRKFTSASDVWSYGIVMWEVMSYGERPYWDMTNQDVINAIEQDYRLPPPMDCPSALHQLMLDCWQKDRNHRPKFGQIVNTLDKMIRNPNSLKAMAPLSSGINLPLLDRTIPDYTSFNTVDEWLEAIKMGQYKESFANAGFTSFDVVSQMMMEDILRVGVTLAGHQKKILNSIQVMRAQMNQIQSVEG

Another assay concerns the target T6, ULK2(h) (human, UniProt Q8IYT8 1-631, limits assumed).
T6 sequence (looked up): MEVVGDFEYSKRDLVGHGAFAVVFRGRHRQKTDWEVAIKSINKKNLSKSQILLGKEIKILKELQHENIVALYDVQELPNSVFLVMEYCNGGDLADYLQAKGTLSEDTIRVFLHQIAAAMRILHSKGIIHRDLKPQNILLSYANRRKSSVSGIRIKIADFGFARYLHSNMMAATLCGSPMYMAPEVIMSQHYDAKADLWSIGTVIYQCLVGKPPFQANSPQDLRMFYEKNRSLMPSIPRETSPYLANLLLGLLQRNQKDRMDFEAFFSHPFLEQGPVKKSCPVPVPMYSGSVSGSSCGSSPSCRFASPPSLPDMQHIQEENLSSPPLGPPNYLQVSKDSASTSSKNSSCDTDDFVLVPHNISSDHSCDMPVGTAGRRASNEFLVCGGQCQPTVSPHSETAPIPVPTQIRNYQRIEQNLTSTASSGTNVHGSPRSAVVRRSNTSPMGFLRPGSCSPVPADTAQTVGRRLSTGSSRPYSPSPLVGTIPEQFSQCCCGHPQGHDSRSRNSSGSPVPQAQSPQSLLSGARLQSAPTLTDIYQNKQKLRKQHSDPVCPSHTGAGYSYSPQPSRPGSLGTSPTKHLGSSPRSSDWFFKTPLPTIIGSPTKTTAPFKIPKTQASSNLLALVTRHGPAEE

B1: MMI-0300 (peptide)
peptide: FAKLAARLYRKALARQLGVAA
For B1, the “% activity, 100 µM” value came to 94% with DDR2(h); 19% in the assay with MST2(h); 101% in the assay with LKB1(h); 61% with PrKX(h); 81% with PDGFRβ(h); 18% with EphB2(h). Moreover, the “% activity, 100 µM” value with ULK2(h) is 122%.

B2: MMI-0400 (peptide)
peptide: KAFAKLAARLYRKALARQLGVAA
Turning to B2, the “% activity, 100 µM” value with DDR2(h) turned out to be 95%; with MST2(h) it was 11%; in the assay with LKB1(h), 89%; with PrKX(h) it was 76%; with PDGFRβ(h) it was 53%; in the assay with EphB2(h) it was 22%. Moreover, the “% activity, 100 µM” value with ULK2(h) worked out at 131%.
